Experimental data from article PMC8537277 (Pharmaceuticals, 2021).

B1: peptide 6 (Ac-SKHA-NH2) (peptide)
peptide: Ac-SKHA-NH2
B2: peptide 7 (Ac-ALDC-NH2) (peptide)
peptide: Ac-ALDC-NH2
B3: peptide 8 (Ac-SADC-NH2) (peptide)
peptide: Ac-SADC-NH2
B4: peptide 9 (Ac-SLAC-NH2) (peptide)
peptide: Ac-SLAC-NH2
B5: peptide 10 (Ac-SLDA-NH2) (peptide)
peptide: Ac-SLDA-NH2
B6: peptide 3 (Ac-AKHS-NH2) (peptide)
peptide: Ac-AKHS-NH2
B7: peptide 4 (Ac-SAHS-NH2) (peptide)
peptide: Ac-SAHS-NH2
B8: peptide 5 (Ac-SKAS-NH2) (peptide)
peptide: Ac-SKAS-NH2

What was measured:
[1] = target: H1N1 hemagglutinin (Cat No.: Z03181, GenScript), full-length recombinant HA (His-Tag) (influenza A virus H1N1 (strain not stated)); experiment: SPR
[2] = target: H1N1 hemagglutinin (Cat No.: Z03181, GenScript), full-length recombinant HA (His-Tag) (influenza A virus H1N1 (strain not stated)); experiment: MST; fluorescently labelled His-HA (NT647-HA) held constant, peptide in 16 1:1 serial dilutions from 50 µM; assay buffer PBS; 10 min incubation at rt; standard-treated capillaries; high MST power, 10% LED power; Monolith NT.115pico; triplicate
[3] = target: H1N1 hemagglutinin (Cat No.: Z03181, GenScript), full-length recombinant HA (His-Tag) (influenza A virus H1N1 (strain not stated)); experiment: SPR; remark: listed apart in the source

Binder	Kd [1] [nM]	Kd [2] [nM]	Kd [3] [nM]
B1	6750	11400	–
B2	27.7	21200	–
B3	2190	6380	–
B4	2570	5.8	–
B5	343	2690	–
B6	2700	3120	–
B7	3.5	8.2	3.57
B8	1030	7010	–
